Here are results for five molecules from patent US20250340631A1 (HARBOUR BIOMED SHANGHAI, published 2025).

Assay [1] addresses human CLDN18.2 (human). Nature of the assay: cell-based or functional assay.
Assay [2] has as its target CLDN18.2 of SNU620 cells (methionine to leucine at amino acid 149) (human, UniProt P56856-2 1-261). Nature of the assay: cell-based or functional assay.
Assay [3] concerns the target Human FcRn (human, UniProt P55899 24-297; P61769 21-119). Nature of the assay: BLI (Octet), antibody on FAB2G sensor, pH 6.0, 1:1 global fit; pH 6.0; 400-25 nM.
Procedure: (§1) The binding kinetics between proteins and antibodies was analyzed by the Biolayer Interferometry (BLI) technique using an Octet Red 96e (Fortebio) system. The rotation speed was set at 1000 rpm for the system. […] After equilibrated in the buffer for 120 s, the FAB2G sensor was allowed to bind to 2-fold serially diluted human Fc receptor protein. Finally, the FAB2G sensor was immersed in a 10 mM glycine-hydrochloric acid solution at pH 1.5 for regeneration to elute the proteins bound to the sensor. The affinity assays of antibodies for FcRn were performed under the conditions of both pH 6.0 buffer and pH 7.4 buffer. […] For the interactions of fast binding and fast dissociation, the “steady state” method was selected to fit the data to obtain KD(M) values.
The target of assay [4] is Human CD16a(F) (human, UniProt P08637 17-208). Nature of the assay: BLI (Octet), antibody on FAB2G sensor. A general note: Biolayer interferometry detects binding as a change in optical thickness at a sensor tip.
Sequence of Human CD16a(F) (P08637 17-208 limits assumed): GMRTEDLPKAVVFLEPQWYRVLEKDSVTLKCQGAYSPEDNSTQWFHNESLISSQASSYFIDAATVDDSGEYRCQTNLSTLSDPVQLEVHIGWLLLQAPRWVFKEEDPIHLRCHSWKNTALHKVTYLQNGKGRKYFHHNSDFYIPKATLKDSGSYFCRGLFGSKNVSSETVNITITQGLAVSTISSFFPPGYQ
Procedure: as §1
Assay [5] has as its target T1, Human CD32b (human, UniProt P31994 46-217, limits assumed).
T1 sequence (looked up): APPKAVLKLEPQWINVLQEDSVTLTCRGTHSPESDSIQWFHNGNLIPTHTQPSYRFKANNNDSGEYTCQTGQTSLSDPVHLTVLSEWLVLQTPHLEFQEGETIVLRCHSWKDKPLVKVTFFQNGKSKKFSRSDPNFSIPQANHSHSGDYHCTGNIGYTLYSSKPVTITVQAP
Nature of the assay: BLI (Octet), antibody on FAB2G sensor.
Procedure: as §1

For assay [6], the target named is T2, Human CD32a(H) (human, UniProt P12318 36-218, limits assumed).
T2 sequence (looked up): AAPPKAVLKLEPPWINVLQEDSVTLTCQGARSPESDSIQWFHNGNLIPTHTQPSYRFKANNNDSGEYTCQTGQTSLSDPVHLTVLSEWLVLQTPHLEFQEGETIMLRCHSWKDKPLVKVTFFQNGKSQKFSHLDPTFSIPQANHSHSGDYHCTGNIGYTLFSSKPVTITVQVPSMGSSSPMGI
Nature of the assay: BLI (Octet), antibody on FAB2G sensor.
Procedure: as §1

Assay [7] concerns the target T3, human CLDN18.2 (human).
T3 construct: the HEK293 line was made with a GenScript plasmid; also called hCLDN18.2
Nature of the assay: FACS on NUGC4_D8 cells.

Assay [8] has as its target T4, Human CD64 (human, UniProt P12314 16-288, limits assumed).
T4 construct: bought recombinant protein
Nature of the assay: BLI (Octet), antibody on FAB2G sensor, 1:1 global fit.
Procedure: as §1

Assay [9] addresses T5, human CD3 on Jurkat cells (human, UniProt P07766 23-207).
T5 construct: whole, on cells; on cells it stands in the whole CD3/TCR complex; also called CD3-expressing cells
Nature of the assay: FACS on Jurkat cells (CD3).
Procedure: (§2) Antibodies were assayed for binding affinity by FACS. Test cells include HEK293/hCLDN18.2, HEK293/hCLDN18.1, NUGC4_D8 and Jurkat cells. […] The cell density was adjusted to 10⁶ cells/mL, and 50 μL of the cell suspension was added to each well of a 96-well plate. Antibodies were diluted to different concentrations with FACS buffer, and 50 μL of the antibody dilution was added to each well of the 96-well plate. After 2 h of incubation at 4° C., the plate was washed twice with FACS buffer. […] After 1 h of incubation at 4° C., the plate was washed twice with FACS buffer. The cells were resuspended in fixative solution, and then the fluorescence of the cells was monitored using an FACS instrument (ACEA NovoCyte).

The target of assay [10] is T3, human CLDN18.2. Nature of the assay: competition FACS on HEK293/hCLDN18.2 cells; competitor 200 nM biotinylated PR004549.
Assay [11] deals with T3, human CLDN18.2. Nature of the assay: competition FACS on HEK293/hCLDN18.2 cells; competitor 10 nM biotinylated PR000400.
Procedure: This example is to study the binding of anti-human CLDN18.2 bispecific antibodies to the epitope region of a human CLDN18.2 antigen. Competitive binding experiments were performed at the cellular level using human CLDN18.2-overexpressing HEK293/hCLDN18.2 cells. […] The mixture was well mixed and incubated at 4° C. for 30 min. 25 μL of the corresponding serially diluted non-biotinylated anti-human CLDN18.2 antibody was added. The mixture was well mixed and incubated at 4° C. for 1 h. The cells in each well were washed twice with 200 μL of pre-cooled FACS buffer (2% BSA in DPBS) and centrifuged at 500 g at 4° C. for 5 min, and then the supernatant was discarded. A fluorescent secondary antibody (Jackson ImmunoResearch, 016-540-084, 1:500) was added. The mixture was incubated at 4° C. in the absence of light for 1 h. The cells in each well were washed twice with 200 μL of pre-cooled FACS buffer (2% BSA in DPBS) and centrifuged at 500 g at 4° C. for 5 min, and then the supernatant was discarded. Finally, the cells in each well were resuspended in 200 μL of pre-cooled FACS buffer, and the fluorescence signal values were read using a ACEA_NovoCyte.
In assay [12] the target is T3, human CLDN18.2. Nature of the assay: FACS on HEK293/hCLDN18.2 cells.
For assay [13], the target named is Human CD16a(V) (human, UniProt P08637 17-208). Nature of the assay: BLI (Octet), antibody on FAB2G sensor, steady state fit.
Sequence of Human CD16a(V) (P08637 17-208 F176V limits assumed): as the sequence (P08637 17-208 limits assumed) above, with F160V counted along it
Procedure: as §1
Assay [14] concerns the target T5, human CD3 on Jurkat cells. Nature of the assay: FACS on Jurkat cells (CD3). This is another data set of the same source.
Procedure: as §2
In assay [15] the target is T5, human CD3 on Jurkat cells. Nature of the assay: FACS on Jurkat cells.
Procedure: as §2
Assay [16] addresses T6, human CLDN2 (human, UniProt P57739 1-230).
T6 construct: whole, on cells; also called hCLDN2
T6 sequence (looked up): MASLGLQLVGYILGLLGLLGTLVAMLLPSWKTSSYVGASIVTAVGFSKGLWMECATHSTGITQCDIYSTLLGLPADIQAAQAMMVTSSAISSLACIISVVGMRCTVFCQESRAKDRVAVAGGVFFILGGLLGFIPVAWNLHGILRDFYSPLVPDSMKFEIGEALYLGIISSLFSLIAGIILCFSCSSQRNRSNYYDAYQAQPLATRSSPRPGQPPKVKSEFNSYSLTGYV
Nature of the assay: FACS on HEK293 cells transiently expressing human CLDN2.
Procedure: Antibodies were assayed for binding affinity to human CLDN18.2 paralogous proteins by FACS (ACEA NovoCyte). CLDN1, CLDN2, CLDN3, CLDN4, CLDN6 and CLDN9 genes of the human CLDN18.2 paralogous family were transiently transfected into HEK293 cells. […] The cell density was adjusted to 10⁶ cells/mL, and 50 μL of the cell suspension was added to each well of a 96-well plate. An antibody was diluted to 60 nM with FACS buffer, and 50 μL of the antibody dilution was added to each well of the 96-well plate. After 2 h of incubation at 4° C., the plate was washed twice with FACS buffer. Then, an FACS buffer containing a secondary antibody was added. After 1 h of incubation at 4° C., the plate was washed twice with FACS buffer. The cells were resuspended in fixative solution, and run FACS.

Positions count from the first letter of the chain named. Read-outs that look alike come from different tables or passages of the source.

T4 sequence (P12314 16-288 limits assumed): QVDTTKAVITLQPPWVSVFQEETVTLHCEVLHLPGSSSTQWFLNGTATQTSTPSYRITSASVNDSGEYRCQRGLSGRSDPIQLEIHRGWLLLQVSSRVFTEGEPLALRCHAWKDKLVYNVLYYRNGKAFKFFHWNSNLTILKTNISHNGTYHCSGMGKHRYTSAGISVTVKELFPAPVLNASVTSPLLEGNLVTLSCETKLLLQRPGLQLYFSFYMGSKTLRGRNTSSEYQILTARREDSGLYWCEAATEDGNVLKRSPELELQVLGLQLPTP
Sequence of Human FcRn (P55899 24-297 limits assumed, chain 1 of 2): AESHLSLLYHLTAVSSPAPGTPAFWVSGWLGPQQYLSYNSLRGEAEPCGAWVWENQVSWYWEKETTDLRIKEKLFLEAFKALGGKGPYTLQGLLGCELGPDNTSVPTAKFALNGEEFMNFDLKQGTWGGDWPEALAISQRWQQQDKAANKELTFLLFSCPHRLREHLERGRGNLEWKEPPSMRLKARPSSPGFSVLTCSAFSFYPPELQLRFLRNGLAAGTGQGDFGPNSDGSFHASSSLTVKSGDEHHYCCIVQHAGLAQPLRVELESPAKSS
Sequence of Human FcRn (P61769 21-119 limits assumed, chain 2 of 2): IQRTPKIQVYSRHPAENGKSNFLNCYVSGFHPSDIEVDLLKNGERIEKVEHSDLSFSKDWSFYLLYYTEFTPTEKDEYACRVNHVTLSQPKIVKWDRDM
T5 sequence (P07766 23-207): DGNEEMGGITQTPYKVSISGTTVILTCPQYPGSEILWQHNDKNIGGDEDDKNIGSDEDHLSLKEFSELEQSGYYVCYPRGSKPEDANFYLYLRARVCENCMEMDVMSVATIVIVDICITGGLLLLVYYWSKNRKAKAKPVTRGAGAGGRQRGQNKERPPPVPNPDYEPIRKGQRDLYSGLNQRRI
Sequence of CLDN18.2 of SNU620 cells (methionine to leucine at amino acid 149) (P56856 other isoform, or with tags, fused parts or gaps limits assumed): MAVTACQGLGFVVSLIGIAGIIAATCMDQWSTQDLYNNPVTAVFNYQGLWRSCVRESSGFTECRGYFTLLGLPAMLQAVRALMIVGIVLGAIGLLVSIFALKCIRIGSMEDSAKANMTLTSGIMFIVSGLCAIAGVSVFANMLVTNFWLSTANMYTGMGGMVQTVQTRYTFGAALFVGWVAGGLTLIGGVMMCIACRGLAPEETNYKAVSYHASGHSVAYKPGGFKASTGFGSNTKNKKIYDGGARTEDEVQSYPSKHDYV

B1: PR005397 (bispecific antibody, human IgG1, lambda, L234A L235A)
chain: EVQLVESGGGLVQPGGSLRLSCAASGFTFSSYWMHWVRQVPGKGLVWVSRISSTGSRTIYADSVKGRFTISRDNAKNTLYLQMNSLRAEDTAVYYCARGEDHDILTGYPIRGQGTTVTVSSGGGGSGGGGSGGGGSEVQLVESGGGLVQPGGSLRLSCAASGFTFSSYWMHWVRQVPGKGLVWVSRISSTGSRTIYADSVKGRFTISRDNAKNTLYLQMNSLRAEDTAVYYCARGEDHDILTGYPIRGQGTTVTVSSASEPKSSDKTHTCPPCPAPEAAGGPSVFLFPPKPKDTLMISRTPEVTCVVVDVSHEDPEVKFNWYVDGVEVHNAKTKPREEQYNSTYRVVSVLTVLHQDWLNGKEYKCKVSNKALPAPIEKTISKAKGQPREPQVCTLPPSREEMTKNQVSLSCAVKGFYPSDIAVEWESNGQPENNYKTTPPVLDSDGSFFLVSKLTVDKSRWQQGNVFSCSVMHEALHNHYTQKSLSLSPGK
heavy: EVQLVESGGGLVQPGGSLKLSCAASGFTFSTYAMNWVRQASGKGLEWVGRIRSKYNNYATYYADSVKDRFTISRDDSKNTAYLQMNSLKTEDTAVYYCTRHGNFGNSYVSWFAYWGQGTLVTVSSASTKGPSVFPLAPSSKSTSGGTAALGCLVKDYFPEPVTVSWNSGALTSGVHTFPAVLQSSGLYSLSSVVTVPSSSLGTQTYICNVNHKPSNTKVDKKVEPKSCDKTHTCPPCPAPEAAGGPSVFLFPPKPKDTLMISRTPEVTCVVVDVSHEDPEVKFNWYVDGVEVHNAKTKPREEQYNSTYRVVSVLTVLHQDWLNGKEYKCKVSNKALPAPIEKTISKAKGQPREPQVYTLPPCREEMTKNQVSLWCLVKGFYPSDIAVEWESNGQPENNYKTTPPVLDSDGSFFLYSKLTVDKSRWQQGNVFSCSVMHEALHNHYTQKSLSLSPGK
light: QAVVTQEPSLTVSPGGTVTLTCRSSTGAVTTSNYANWVQQKPGQAPRGLIGGTNKRAPWTPARFSGSLLGDKAALTLLGAQPEDEAEYFCALWYSNLWVFGGGTKLTVLGQPKAAPSVTLFPPSSEELQANKATLVCLISDFYPGAVTVAWKADSSPVKAGVETTTPSKQSNNKYAASSYLSLTPEQWKSHRSYSCQVTHEGSTVEKTVAPTECS
notes: structure 1; CD3 Fab from PR003886, CLDN18.2 VH from PR007246; LALA
The term Kd denotes the constant that tells how readily two partners part at equilibrium. A high value points to weaker binding. A word on the koff: it is the rate constant with which the complex falls apart. Usually kon stands for the rate constant with which the complex forms. One may read the EC50 as the concentration at which the effect is half-maximal. For orientation: IC50 means the point on the concentration scale where inhibition reaches its midpoint. Higher therefore signals weaker potency in that assay. For the molecule B1, the “TDCC, Titer EC50 (pM), NUGC4_D8” value in [1] came out at 10 pM. The “TDCC, Titer EC50 (pM), SNU620” value in assay [2] was determined as 31.6 pM. Also, the Kd worked out at 182 nM in [3], 50.6 nM in assay [8] and 1800 nM in assay [13]. Moreover, the koff in assay [3] turned out to be 0.0586 s⁻¹; in [8], 0.0438 s⁻¹. For the same molecule, the kon came out at 322000 M⁻¹ s⁻¹ in [3] and 866000 M⁻¹ s⁻¹ in assay [8]. The binding result in [4] is listed as “no binding (tested: 10000-625 nM)”; in [5], “no binding (tested: 10000-625 nM)”; in assay [6] it was “no binding (tested: 10000-625 nM)”; in assay [9], “binds”. The values for the EC50 in assay [7] and in [12] were 27.5 nM and 12.8 nM, respectively. For the same molecule, the IC50 in [10] is 67.5 nM; in assay [11], 81.8 nM. Moreover, the “Maximum inhibition rate (%)” value in assay [10] was determined as 48%; in [11], 98.4%.

B2: PR007081 (bispecific antibody, human IgG1, lambda)
chain: B1 chain with S52N, S53F, T54D, G55S, S188N, S189F, T190D, G191S, G281A
heavy: EVQLVESGGGLVQPGGSLKLSCAASGFTFSTYAMNWVRQASGKGLEWVGRIRSKYNNYATYYADSVKDRFTISRDDSKNTAYLQMNSLKTEDTAVYYCTRHGNFGNSYVSWFAYWGQGTLVTVSSASTKGPSVFPLAPSSKSTSGGTAALGCLVKDYFPEPVTVSWNSGALTSGVHTFPAVLQSSGLYSLSSVVTVPSSSLGTQTYICNVNHKPSNTKVDKKVEPKSCDKTHTCPPCPAPEAAGAPSVFLFPPKPKDTLMISRTPEVTCVVVDVSHEDPEVKFNWYVDGVEVHNAKTKPREEQYNSTYRVVSVLTVLHQDWLNGKEYKCKVSNKALPAPIEKTISKAKGQPREPQVYTLPPCREEMTKNQVSLWCLVKGFYPSDIAVEWESNGQPENNYKTTPPVLDSDGSFFLYSKLTVDKSRWQQGNVFSCSVMHEALHNHYTQKSLSLSPGK
light: B1 light
notes: structure 1; CD3 Fab from PR003886, CLDN18.2 VH from PR007242; AAA
On to B2, for which, in assay [7], it took 49.3 nM to reach a half-maximal effect (EC50). For the same molecule, in assay [14], the binding result is reported as “binds”.

B3: PR005411 (bispecific antibody, human IgG1, lambda, L234A L235A)
chain: B1 chain with T54D, G55A, T190D, G191A
heavy: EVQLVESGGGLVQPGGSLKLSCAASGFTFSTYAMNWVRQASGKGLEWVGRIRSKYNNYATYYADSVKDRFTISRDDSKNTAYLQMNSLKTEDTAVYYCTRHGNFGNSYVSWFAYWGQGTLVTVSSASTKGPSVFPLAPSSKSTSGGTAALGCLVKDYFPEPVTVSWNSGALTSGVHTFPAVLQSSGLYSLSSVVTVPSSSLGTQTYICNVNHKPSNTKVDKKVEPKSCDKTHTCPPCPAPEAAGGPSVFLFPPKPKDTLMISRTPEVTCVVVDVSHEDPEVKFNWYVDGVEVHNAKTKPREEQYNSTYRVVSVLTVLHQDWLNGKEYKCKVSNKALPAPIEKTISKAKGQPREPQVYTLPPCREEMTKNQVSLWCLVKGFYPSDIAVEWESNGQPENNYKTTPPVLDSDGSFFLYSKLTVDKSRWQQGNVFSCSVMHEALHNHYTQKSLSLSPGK
light: B1 light
notes: structure 1; CD3 Fab from PR003886, CLDN18.2 VH from PR007245; LALA
For the molecule B3, the “TDCC, Titer EC50 (pM), NUGC4_D8” value in assay [1] amounted to 11 pM. Also, the “TDCC, Titer EC50 (pM), SNU620” value in assay [2] was found to be 38.5 pM. Besides, the figures for the Kd in assay [3], in assay [8] and in assay [13] were 215 nM, 47.1 nM and 2300 nM, respectively. The koff in [3] was 0.0644 s⁻¹; in assay [8] it was 0.0417 s⁻¹. For the same molecule, the kon in assay [3] amounted to 300000 M⁻¹ s⁻¹; in assay [8], 885000 M⁻¹ s⁻¹. In addition, the binding result in assay [4], in assay [5] and in assay [6] was “no binding (tested: 10000-625 nM)” each time. Also, the EC50 in [15] was 85.9 nM; in assay [7], 20.5 nM; in assay [12], 16 nM. In addition, the IC50 in [10] is 74.4 nM; in assay [11], 122 nM. Also, the “Maximum inhibition rate (%)” value is 48% in assay [10] and 96.2% in [11].

B4: PR006023 (bispecific antibody, human IgG1, lambda, L234A L235A)
chain: B1 chain
heavy: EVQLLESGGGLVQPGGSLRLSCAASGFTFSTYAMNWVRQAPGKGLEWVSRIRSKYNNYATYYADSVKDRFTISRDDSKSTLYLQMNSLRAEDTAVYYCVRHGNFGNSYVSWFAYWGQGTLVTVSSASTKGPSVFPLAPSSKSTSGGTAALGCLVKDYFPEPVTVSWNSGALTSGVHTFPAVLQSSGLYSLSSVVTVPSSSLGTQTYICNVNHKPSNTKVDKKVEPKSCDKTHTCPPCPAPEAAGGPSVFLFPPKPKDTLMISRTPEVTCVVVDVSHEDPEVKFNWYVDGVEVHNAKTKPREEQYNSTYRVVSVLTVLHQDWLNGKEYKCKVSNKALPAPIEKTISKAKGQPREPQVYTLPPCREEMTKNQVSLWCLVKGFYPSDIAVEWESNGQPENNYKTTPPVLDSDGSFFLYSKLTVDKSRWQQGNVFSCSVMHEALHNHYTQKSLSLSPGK
light: B1 light
notes: structure 1; CD3 Fab from PR001848, CLDN18.2 VH from PR007246; LALA
As for B4, the “TDCC, Titer EC50 (pM), NUGC4_D8” value in assay [1] turned out to be 48.5 pM. For the same molecule, the Kd in assay [3] amounted to 210 nM; in assay [8], 53.9 nM; in assay [13], 3000 nM. Moreover, the koff stood at 0.0626 s⁻¹ in assay [3] and 0.0471 s⁻¹ in [8]. Moreover, the kon was found to be 298000 M⁻¹ s⁻¹ in [3] and 874000 M⁻¹ s⁻¹ in assay [8]. The binding result in [4], in assay [5] and in assay [6] was “no binding (tested: 10000-625 nM)” throughout. The EC50 in assay [15] is 40.6 nM; in assay [7], 31.3 nM.

B5: Positive Control (hCLDN2 row) (antibody, human IgG1, kappa, V domains shown)
VH: VKLLQSGAALVPKPGDSMKMSCKASGYTFTHDIIHWVRQSHGKSLEWIGYINPYNGGTNYNEKFKTKATMTVDKPSSTAYLELTRVSSEASAIYYCATGSFDYWGQGVMVTVSS
VL: DVVLTQTPGSLSLAIGQSASISCKSSQSLLGTSGKTFLNWILQRPGQSPERLIYQVSKLYSEVPDRFSGSGSETEFTLKISRVEAEDLGVYYCWQGIHFPHTFGAGTKLELKR
notes: The sheet prints only 'Positive Control'; also called PR005080; Human Claudin-2 Antibody (PR005080)
Take B5: the binding result in assay [16] is reported as “binds”.
